Key:
HeLa Kyoto [1] = test: solubility in G1/S (NP-40 vs SDS abundance) (log2 ratio); higher = more soluble; conditions: cell cycle stage: G1/S
HeLa Kyoto [2] = test: melting temperature (median over replicates), in situ; higher = more thermally stable
HeLa Kyoto [3] = test: thermal stability score vs G1/S (z-score of summed log2 fold changes over temperatures); higher = more thermally stable than in G1/S
HeLa Kyoto [4] = test: solubility change mitosis vs G1/S (difference of NP-40 vs SDS log2 ratios) (log2 ratio difference); higher = more soluble in mitosis
[5] = cell cycle stage: early G1 (4.5 h after nocodazole release)
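For melting temperature (median over replicates), in situ in this document: HeLa Kyoto cells synchronized by double thymidine or nocodazole block, proteins quantified by TMT10plex mass spectrometry, three independent biological replicates.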
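For solubility change mitosis vs G1/S (difference of NP-40 vs SDS log2 ratios) in this document: synchronized HeLa Kyoto cells (double thymidine block for G1/S, nocodazole release for mitosis), protein amounts in NP-40 versus SDS lysates quantified by mass spectrometry, three biological replicates.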
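For solubility in G1/S (NP-40 vs SDS abundance) in this document: HeLa Kyoto cells arrested at G1/S by double thymidine block, proteins quantified by TMT10plex mass spectrometry in mild NP-40 versus SDS extracts, three biological replicates.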
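For thermal stability score vs G1/S (z-score of summed log2 fold changes over temperatures) in this document: synchronized HeLa Kyoto cells, proteins quantified by TMT10plex mass spectrometry, three biological replicates, mitosis taken 0.5 h after nocodazole release, G1/S directly after double thymidine block.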

| Sequence | solubility in G1/S (log2) (HeLa Kyoto [1]) | melting temperature (HeLa Kyoto [2]; cell cycle stage: G1/S) [°C] | melting temperature (HeLa Kyoto [2]; cell cycle stage: mitosis) [°C] | thermal stability score (HeLa Kyoto [3]; [5]) | thermal stability score (HeLa Kyoto [3]; cell cycle stage: mitosis) | solubility change mitosis (log2) (HeLa Kyoto [4]) |
| --- | --- | --- | --- | --- | --- | --- |
| MPHRKERPSGSSLHTHGSTGTAEGGNMSRLSLTRSPVSPLAAQGIPLPAQLTKSNAPVHIDVGGHMYTSSLATLTKYPDSRISRLFNGTEPIVLDSLKQHYFIDRDGEIFRYVLSFLRTSKLLLPDDFKDFSLLYEEARYYQLQPMVRELERWQQEQEQRRRSRACDCLVVRVTPDLGERIALSGEKALIEEVFPETGDVMCNSVNAGWNQDPTHVIRFPLNGYCRLNSVQVLERLFQRGFSVAASCGGGVDSSQFSEYVLCREERRPQPTPTAVRIKQEPLD [KCTD15] | 0.447 | 56 | 56.9 | -2.02 | 0.00454 | -0.0635 |
| MPKKFQGENTKSAAARARRAEAKAAADAKKQKELEDAYWKDDDKHVMRKEQRKEEKEKRRLDQLERKKETQRLLEEEDSKLKGGKAPRVATSSKVTRAQIEDTLRRDHQLREAPDTAEKAKSHLEVPLEENVNRRVLEEGSVEARTIEDAIAVLSVAEEAADRHPERRMRAAFTAFEEAQLPRLKQENPNMRLSQLKQLLKKEWLRSPDNPMNQRAVPFNAPK [CCDC124] | 0.214 | 57.1 | 53.7 | 0.653 | -5.08 | 0.537 |
| MPKRKAAGQGDMRQEPKRRSARLSAMLVPVTPEVKPKRTSSSRKMKTKSDMMEENIDTSAQAVAETKQEAVVEEDYNENAKNGEAKITEAPASEKEIVEVKEENIEDATEKGGEKKEAVAAEVKNEEEDQKEDEEDQNEEKGEAGKEDKDEKGEEDGKEDKNGNEKGEDAKEKEDGKKGEDGKGNGEDGKEKGEDEKEEEDRKETGDGKENEDGKEKGDKKEGKDVKVKEDEKEREDGKEDEGGNEEEAGKEKEDLKEEEEGKEEDEIKEDDGKKEEPQSIV [HMGN5] | 0.255 | 59.9 | 59.8 | -0.636 | -5.4 | 0.272 |
| MPKRKVTFQGVGDEEDEDEIIVPKKKLVDPVAGSGGPGSRFKGKHSLDSDEEEDDDDGGSSKYDILASEDVEGQEAATLPSEGGVRITPFNLQEEMEEGHFDADGNYFLNRDAQIRDSWLDNIDWVKIRERPPGQRQASDSEEEDSLGQTSMSAQALLEGLLELLLPRETVAGALRRLGARGGGKGRKGPGQPSSPQRLDRLSGLADQMVARGNLGVYQETRERLAMRLKGLGCQTLGPHNPTPPPSLDMFAEELAEEELETPTPTQRGEAESRGDGLVDVMWEYKWENTGDAELYGPFTSAQMQTWVSEGYFPDGVYCRKLDPPGGQFYNSKRIDFDLYT [CD2BP2] | 0.00357 | 47.9 | 51.2 | 0.517 | 0.833 | 0.301 |
| MPKTISVRVTTMDAELEFAIQPNTTGKQLFDQVVKTIGLREVWFFGLQYQDTKGFSTWLKLNKKVTAQDVRKESPLLFKFRAKFYPEDVSEELIQDITQRLFFLQVKEGILNDDIYCPPETAVLLASYAVQSKYGDFNKEVHKSGYLAGDKLLPQRVLEQHKLNKDQWEERIQVWHEEHRGMLREDAVLEYLKIAQDLEMYGVNYFSIKNKKGSELWLGVDALGLNIYEQNDRLTPKIGFPWSEIRNISFNDKKFVIKPIDKKAPDFVFYAPRLRINKRILALCMGNHELYMRRRKPDTIEVQQMKAQAREEKHQKQMERAMLENEKKKREMAEKEKEKIEREKEELMERLKQIEEQTKKAQQELEEQTRRALELEQERKRAQSEAEKLAKERQEAEEAKEALLQASRDQKKTQEQLALEMAELTARISQLEMARQKKESEAVEWQQKAQMVQEDLEKTRAELKTAMSTPHVAEPAENEQDEQDENGAEASADLRADAMAKDRSEEERTTEAEKNERVQKHLKALTSELANARDESKKTANDMIHAENMRLGRDKYKTLRQIRQGNTKQRIDEFESM [MSN] | 0.0519 | 52.1 | 52 | -0.264 | 1.56 | -0.0148 |
| MPLENLEEEGLPKNPDLRIAQLRFLLSLPEHRGDAAVRDELMAAVRDNNMAPYYEALCKSLDWQIDVDLLNKMKKANEDELKRLDEELEDAEKNLGESEIRDAMMAKAEYLCRIGDKEGALTAFRKTYDKTVALGHRLDIVFYLLRIGLFYMDNDLITRNTEKAKSLIEEGGDWDRRNRLKVYQGLYCVAIRDFKQAAELFLDTVSTFTSYELMDYKTFVTYTVYVSMIALERPDLREKVIKGAEILEVLHSLPAVRQYLFSLYECRYSVFFQSLAVVEQEMKKDWLFAPHYRYYVREMRIHAYSQLLESYRSLTLGYMAEAFGVGVEFIDQELSRFIAAGRLHCKIDKVNEIVETNRPDSKNWQYQETIKKGDLLLNRVQKLSRVINM [PSMD6] | -0.15 | 53.3 | 53.2 | 1 | 1.09 | -0.189 |
| MPLLGLLPRRAWASLLSQLLRPPCASCTGAVRCQSQVAEAVLTSQLKAHQEKPNFIIKTPKGTRDLSPQHMVVREKILDLVISCFKRHGAKGMDTPAFELKETLTEKYGEDSGLMYDLKDQGGELLSLRYDLTVPFARYLAMNKVKKMKRYHVGKVWRRESPTIVQGRYREFCQCDFDIAGQFDPMIPDAECLKIMCEILSGLQLGDFLIKVNDRRIVDGMFAVCGVPESKFRAICSSIDKLDKMAWKDVRHEMVVKKGLAPEVADRIGDYVQCHGGVSLVEQMFQDPRLSQNKQALEGLGDLKLLFEYLTLFGIADKISFDLSLARGLDYYTGVIYEAVLLQTPTQAGEEPLNVGSVAAGGRYDGLVGMFDPKGHKVPCVGLSIGVERIFYIVEQRMKTKGEKVRTTETQVFVATPQKNFLQERLKLIAELWDSGIKAEMLYKNNPKLLTQLHYCESTGIPLVVIIGEQELKEGVIKIRSVASREEVAIKRENFVAEIQKRLSES [HARS2] | 0.0324 | 53.6 | 53.3 | 2.43 | 1.63 | -0.0551 |
| MPLPVALQTRLAKRGILKHLEPEPEEEIIAEDYDDDPVDYEATRLEGLPPSWYKVFDPSCGLPYYWNADTDLVSWLSPHDPNSVVTKSAKKLRSSNADAEEKLDRSHDKSDRGHDKSDRSHEKLDRGHDKSDRGHDKSDRDRERGYDKVDRERERDRERDRDRGYDKADREEGKERRHHRREELAPYPKSKKAVSRKDEELDPMDPSSYSDAPRGTWSTGLPKRNEAKTGADTTAAGPLFQQRPYPSPGAVLRANAEASRTKQQD [PQBP1] | 0.0148 | 58.2 | 54.6 | -3.93 | -4.26 | 0.599 |
| MPLSDFILALKDNPYFGAGFGLVGVGTALALARKGVQLGLVAFRRHYMITLEVPARDRSYAWLLSWLTRHSTRTQHLSVETSYLQHESGRISTKFEFVPSPGNHFIWYRGKWIRVERSREMQMIDLQTGTPWESVTFTALGTDRKVFFNILEEARELALQQEEGKTVMYTAVGSEWRPFGYPRRRRPLNSVVLQQGLADRIVRDVQEFIDNPKWYTDRGIPYRRGYLLYGPPGCGKSSFITALAGELEHSICLLSLTDSSLSDDRLNHLLSVAPQQSLVLLEDVDAAFLSRDLAVENPVKYQGLGRLTFSGLLNALDGVASTEARIVFMTTNHVDRLDPALIRPGRVDLKEYVGYCSHWQLTQMFQRFYPGQAPSLAENFAEHVLRATNQISPAQVQGYFMLYKNDPVGAIHNAESLRR [BCS1L] | -0.165 | 55.4 | 54.8 | 0.147 | -1.22 | -0.291 |
| MPMFIVNTNVPRASVPDGFLSELTQQLAQATGKPPQYIAVHVVPDQLMAFGGSSEPCALCSLHSIGKIGGAQNRSYSKLLCGLLAERLRISPDRVYINYYDMNAANVGWNNSTFA [MIF] | 0.405 | 53.5 | 52.5 | -7.37 | -7.71 | -0.0337 |
| MPNSEPASLLELFNSIATQGELVRSLKAGNASKDEIDSAVKMLVSLKMSYKAAAGEDYKADCPPGNPAPTSNHGPDATEAEEDFVDPWTVQTSSAKGIDYDKLIVRFGSSKIDKELINRIERATGQRPHHFLRRGIFFSHRDMNQVLDAYENKKPFYLYTGRGPSSEAMHVGHLIPFIFTKWLQDVFNVPLVIQMTDDEKYLWKDLTLDQAYSYAVENAKDIIACGFDINKTFIFSDLDYMGMSSGFYKNVVKIQKHVTFNQVKGIFGFTDSDCIGKISFPAIQAAPSFSNSFPQIFRDRTDIQCLIPCAIDQDPYFRMTRDVAPRIGYPKPALLHSTFFPALQGAQTKMSASDPNSSIFLTDTAKQIKTKVNKHAFSGGRDTIEEHRQFGGNCDVDVSFMYLTFFLEDDDKLEQIRKDYTSGAMLTGELKKALIEVLQPLIAEHQARRKEVTDEIVKEFMTPRKLSFDFQ [WARS] | 0.127 | 56.7 | 56.3 | -0.453 | -0.825 | -0.199 |
| MPPSGPRGTLLLLPLLLLLLLRAVLAVPLERGAPNKEETPATESPDTGLYYHRYLQEVIDVLETDGHFREKLQAANAEDIKSGKLSRELDFVSHHVRTKLDELKRQEVSRLRMLLKAKMDAEQDPNVQVDHLNLLKQFEHLDPQNQHTFEARDLELLIQTATRDLAQYDAAHHEEFKRYEMLKEHERRRYLESLGEEQRKEAERKLEEQQRRHREHPKVNVPGSQAQLKEVWEELDGLDPNRFNPKTFFILHDINSDGVLDEQELEALFTKELEKVYDPKNEEDDMREMEEERLRMREHVMKNVDTNQDRLVTLEEFLASTQRKEFGDTGEGWETVEMHPAYTEEELRRFEEELAAREAELNAKAQRLSQETEALGRSQGRLEAQKRELQQAVLHMEQRKQQQQQQQGHKAPAAHPEGQLKFHPDTDDVPVPAPAGDQKEVDTSEKKLLERLPEVEVPQHL [NUCB1] | 0.717 | 54.5 | 54.7 | -3.73 | -4.26 | 0.0913 |
| MPRIMIKGGVWRNTEDEILKAAVMKYGKNQWSRIASLLHRKSAKQCKARWYEWLDPSIKKTEWSREEEEKLLHLAKLMPTQWRTIAPIIGRTAAQCLEHYEFLLDKAAQRDNEEETTDDPRKLKPGEIDPNPETKPARPDPIDMDEDELEMLSEARARLANTQGKKAKRKAREKQLEEARRLAALQKRRELRAAGIEIQKKRKRKRGVDYNAEIPFEKKPALGFYDTSEENYQALDADFRKLRQQDLDGELRSEKEGRDRKKDKQHLKRKKESDLPSAILQTSGVSEFTKKRSKLVLPAPQISDAELQEVVKVGQASEIARQTAEESGITNSASSTLLSEYNVTNNSVALRTPRTPASQDRILQEAQNLMALTNVDTPLKGGLNTPLHESDFSGVTPQRQVVQTPNTVLSTPFRTPSNGAEGLTPRSGTTPKPVINSTPGRTPLRDKLNINPEDGMADYSDPSYVKQMERESREHLRLGLLGLPAPKNDFEIVLPENAEKELEEREIDDTYIEDAADVDARKQAIRDAERVKEMKRMHKAVQKDLPRPSEVNETILRPLNVEPPLTDLQKSEELIKKEMITMLHYDLLHHPYEPSGNKKGKTVGFGTNNSEHITYLEHNPYEKFSKEELKKAQDVLVQEMEVVKQGMSHGELSSEAYNQVWEECYSQVLYLPGQSRYTRANLASKKDRIESLEKRLEINRGHMTTEAKRAAKMEKKMKILLGGYQSRAMGLMKQLNDLWDQIEQAHLELRTFEELKKHEDSAIPRRLECLKEDVQRQQEREKELQHRYADLLLEKETLKSKF [CDC5L] | -0.778 | 47.5 | 48.7 | 3.11 | 6.1 | 0.483 |
| MPRKRKCDLRAVRVGLLLGGGGVYGSRFRFTFPGCRALSPWRVRVQRRRCEMSTMFADTLLIVFISVCTALLAEGITWVLVYRTDKYKRLKAEVEKQSKKLEKKKETITESAGRQQKKKIERQEEKLKNNNRDLSMVRMKSMFAIGFCFTALMGMFNSIFDGRVVAKLPFTPLSYIQGLSHRNLLGDDTTDCSFIFLYILCTMSIRQNIQKILGLAPSRAATKQAGGFLGPPPPSGKFS [TMCO1] | -0.0501 | 53.7 | 54.1 | -0.0145 | -0.0344 | 0.0683 |
